Laboratory results taken from patent US20070292409A1 (University of California, published 2007).

B1: G protein-coupled receptor kinase 2 (GRK2), endogenous protein of 3T3-L1 adipocytes (enzyme, UniProt Q99MK8 1-689, looked up)
chain: MADLEAVLADVSYLMAMEKSKATPAARASKKILLPEPSIRSVMQKYLEDRGEVTFEKIFSQKLGYLLFRDFCLNHLEEAKPLVEFYEEIKKYEKLETEEERVVRSREIFDSYIMKELLACSHPFSKNATEHVQGHLVKKQVPPDLFQPYIEEICQNLRGDVFQKFIESDKFTRFCQWKNVELNIHLTMNDFSVHRIIGRGGFGEVYGCRKADTGKMYAMKCLDKKRIKMKQGETLALNERIMLSLVSTGDCPFIVCMSYAFHTPDKLSFILDLMNGGDLHYHLSQHGVFSEADMRFYAAEIILGLEHMHNRFVVYRDLKPANILLDEHGHVRISDLGLACDFSKKRPHASVGTHGYMAPEVLQKGVAYDSSADWFSLGCMLFKLLRGHSPFRQHKTKDKHEIDRMTLTMAVELPDSFSPELRSLLEGLLQRDVNRRLGCLGRGAQEVKESPFFRSLDWQMVFLQKYPPPLIPPRGEVNAADAFDIGSFDEEDTKGIKLLDSDQELYRNFPLTISERWQQEVAETVFDTINAETDRLEARKKAKNKQLGHEEDYALGKDCIVHGYMSKMGNPFLTQWQRRYFYLFPNRLEWRGEGEAPQSLLTMEEIQSVEETQIKERKCLLLKIRGGKQFVLQCDSDPELVQWKKELRDAYREAQQLVQRVPKMKNKPRSPVVELSKVPLIQRGSANGL
notes: Precipitated from cell lysate with a rabbit polyclonal anti-GRK2 antibody; also called endogenous GRK2

Tests used:
[1] = target: G protein-q/11 α-subunit (Gαq/11), endogenous protein of 3T3-L1 adipocytes (UniProt P21279)
[2] = target: T1, insulin receptor, endogenous protein of 3T3-L1 adipocytes (UniProt P15208 28-1372, limits assumed); experiment: co-immunoprecipitation with anti-GRK2 antibody from 3T3-L1 adipocyte lysates
T1 construct: The mature receptor is made of alpha and beta chains; also called IR
T1 sequence (P15208 28-1372 limits assumed): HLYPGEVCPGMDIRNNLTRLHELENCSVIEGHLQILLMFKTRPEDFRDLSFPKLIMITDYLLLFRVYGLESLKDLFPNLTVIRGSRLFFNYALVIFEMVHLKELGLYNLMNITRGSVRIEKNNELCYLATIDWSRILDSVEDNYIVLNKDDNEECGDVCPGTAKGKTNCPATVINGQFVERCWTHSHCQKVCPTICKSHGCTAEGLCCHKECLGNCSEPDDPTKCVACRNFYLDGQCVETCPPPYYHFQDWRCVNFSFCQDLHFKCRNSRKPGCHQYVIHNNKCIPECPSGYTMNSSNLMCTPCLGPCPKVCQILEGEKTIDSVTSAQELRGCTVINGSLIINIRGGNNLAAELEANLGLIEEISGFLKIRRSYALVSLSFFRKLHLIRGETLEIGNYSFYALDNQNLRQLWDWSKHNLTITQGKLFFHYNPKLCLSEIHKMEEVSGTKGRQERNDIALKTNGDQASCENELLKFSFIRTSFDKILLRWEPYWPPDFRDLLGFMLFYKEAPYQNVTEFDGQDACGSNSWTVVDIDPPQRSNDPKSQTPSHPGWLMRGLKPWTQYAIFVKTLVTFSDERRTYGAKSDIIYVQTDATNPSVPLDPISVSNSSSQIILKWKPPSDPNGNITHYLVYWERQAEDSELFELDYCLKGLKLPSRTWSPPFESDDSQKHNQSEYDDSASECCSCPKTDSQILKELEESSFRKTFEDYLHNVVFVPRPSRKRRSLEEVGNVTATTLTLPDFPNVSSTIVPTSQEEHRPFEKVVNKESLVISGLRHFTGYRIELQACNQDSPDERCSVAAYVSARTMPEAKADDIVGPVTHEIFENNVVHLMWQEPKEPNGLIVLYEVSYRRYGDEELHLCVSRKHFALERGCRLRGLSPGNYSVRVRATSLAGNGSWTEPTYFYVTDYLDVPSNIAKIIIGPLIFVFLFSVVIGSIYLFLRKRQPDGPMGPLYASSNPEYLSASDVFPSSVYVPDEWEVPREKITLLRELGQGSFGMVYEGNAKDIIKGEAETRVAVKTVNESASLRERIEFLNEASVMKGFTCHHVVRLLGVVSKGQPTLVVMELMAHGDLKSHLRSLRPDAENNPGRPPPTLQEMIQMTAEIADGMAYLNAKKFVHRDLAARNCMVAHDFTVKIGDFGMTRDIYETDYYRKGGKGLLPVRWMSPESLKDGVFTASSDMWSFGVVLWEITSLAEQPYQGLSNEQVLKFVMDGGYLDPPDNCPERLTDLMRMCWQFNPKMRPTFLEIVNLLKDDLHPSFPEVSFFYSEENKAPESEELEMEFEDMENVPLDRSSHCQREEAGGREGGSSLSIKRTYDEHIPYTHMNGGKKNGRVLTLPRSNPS

Chain of G protein-q/11 α-subunit (Gαq/11), endogenous protein of 3T3-L1 adipocytes (P21279 whole entry): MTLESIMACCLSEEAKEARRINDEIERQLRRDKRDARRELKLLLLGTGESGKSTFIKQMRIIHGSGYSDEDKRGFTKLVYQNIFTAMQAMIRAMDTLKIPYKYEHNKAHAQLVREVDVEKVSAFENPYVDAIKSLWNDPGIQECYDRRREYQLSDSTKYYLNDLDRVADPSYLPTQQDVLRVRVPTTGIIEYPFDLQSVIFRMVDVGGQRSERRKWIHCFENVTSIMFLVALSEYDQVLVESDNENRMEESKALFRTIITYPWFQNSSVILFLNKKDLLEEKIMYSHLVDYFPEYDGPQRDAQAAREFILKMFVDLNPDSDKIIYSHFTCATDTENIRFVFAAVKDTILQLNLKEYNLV

Molecule | insulin-induced GLUT4 translocation after nuclear microinjection of the expression vector [1] | Gαq/11 tyrosine phosphorylation stimulated by ET-1 or insulin (PY20 immunoprecipitation, anti-Gαq/11 blot) [1] | insulin-induced Gαq/11 tyrosine phosphorylation (PY20 immunoprecipitation, anti-Gαq/11 blot) [1] | binding result [2]
deletion mutant of GRK2 lacking the RGS domain | overexpression of delta-GRK2 had no effect | – | – | –
wild type GRK2, overexpressed (adenovirus or plasmid vector) | overexpression of either WT- or KD-GRK2 by nuclear microinjection inhibited insulin-induced GLUT4 translocation | both WT- and KD-GRK2 overexpression inhibited Gαq/11 tyrosine phosphorylation stimulated by ET-1 or insulin | overexpression of either WT- or KD-GRK2 inhibited insulin-induced Gαq/11 tyrosine phosphorylation | –
kinase deficient (K220R) GRK2, overexpressed (adenovirus or plasmid vector) | overexpression of either WT- or KD-GRK2 by nuclear microinjection inhibited insulin-induced GLUT4 translocation | both WT- and KD-GRK2 overexpression inhibited Gαq/11 tyrosine phosphorylation stimulated by ET-1 or insulin | overexpression of either WT- or KD-GRK2 inhibited insulin-induced Gαq/11 tyrosine phosphorylation | –
B1 | – | – | – | no binding
